From paper PMC5547543 (2017)
Positions count from the first letter of the chain named. Numbers in names are those of the source. Read-outs that look alike come from different tables or passages of the source. One block for each binder: values may come before it.

Columns and labels:
Assay in all cases: SPR
Hck (2PA-YEEI) [1] = molecular target: T1, Hck (2PA-YEEI) (UniProt P08631 1-526, C-terminal tail tyrosine of the YEEI motif constitutively phosphorylated; autophosphorylated at the activation loop tyrosine (Tyr-411 of Hck))
T1 sequence (P08631 other isoform, or with tags, fused parts or gaps): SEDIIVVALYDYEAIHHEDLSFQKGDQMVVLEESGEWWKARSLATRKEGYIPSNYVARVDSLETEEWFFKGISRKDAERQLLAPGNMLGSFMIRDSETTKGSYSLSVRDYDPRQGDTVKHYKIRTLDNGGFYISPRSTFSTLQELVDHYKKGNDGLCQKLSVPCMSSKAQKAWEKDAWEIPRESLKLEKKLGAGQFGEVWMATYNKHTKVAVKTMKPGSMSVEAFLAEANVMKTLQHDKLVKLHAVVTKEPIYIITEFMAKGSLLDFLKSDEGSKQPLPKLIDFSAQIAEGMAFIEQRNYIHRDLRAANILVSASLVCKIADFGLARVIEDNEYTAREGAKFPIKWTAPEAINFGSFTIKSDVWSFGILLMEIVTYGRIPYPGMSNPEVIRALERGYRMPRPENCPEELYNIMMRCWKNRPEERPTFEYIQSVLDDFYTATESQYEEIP

Hck (2PA-YEEI) [2] = molecular target: T1, Hck (2PA-YEEI); remark: listed apart in the source
Hck (2PA-YEEI) [3] = molecular target: T1, Hck (2PA-YEEI); remark: listed apart in the source

Kd (Hck (2PA-YEEI) [1]): 1270 nM
B1: Csk-Chk chimera (enzyme)
chain: MSAIQAAWPSGTECIAKYNFHGTAEQDLPFCKGDVLTIVAVTKDPNWYKAKNKVGREGIIPANYVQKREGVKAGTKLSLMPWFHGKITREQAERLLYPPETGLFLVRESTNYPGDYTLCVSCDGKVEHYRIMYHASKLSIDEEVYFENLMQLVEHYTSDADGLCTRLIKPKVMEGTVAAQDLTLGAQIGEGEFGAVLQGEYLGQKVAVKNIKCDVTAQAFLDETAVMTKMQHENLVRLLGVILHQGLYIVMEHVSKGNLVNFLRTRGRALVNTAQLLQFSLHVAEGMEYLESKKLVHRDLAARNILVSEDLVAKVSDFGLAKAERKGLDSSRLPVKWTAPEALKHGKFTSKSDVWSFGVLLWEVFSYGRAPYPKMSLKEVSEAVEKGYRMEPPEGCPGPVHVLMSSCWEAEPARRPPFRKLAEKLAREL

koff (Hck (2PA-YEEI) [2]): 0.00036 s⁻¹
B2: Chk (K387A) (enzyme)
chain: MPTQRWAPGTQCMTKCENSRPKPGELAFRKGDMVTILEACEDKSWYRAKHHSSGQEGLLAAAALRQREALSTDPKLSLMPWFHGKISGQEAIQQLQPPEDGLFLVRESARHPGDYVLCVSFGRDVIHYRVLHRDGHLTIDEAVCFCNLMDMVEHYTRDKGAICTKLVKPKRKQGAKSAEEELAKAGWLLDLQHLTLGAQIGEGEFGAVLQGEYLGQKVAVKNIKCDVTAQAFLDETAVMTKLQHRNLVRLLGVILHHGLYIVMEHVSKGNLVNFLRTRGRALVSTSQLLQFALHVAEGMEYLESKKLVHRDLAARNILVSEDLVAKVSDFGLAKAELRKGLDSSRLPVKWTAPEALKNGRFSSKSDVWSFGVLLWEVFSYGRAPYPAMSLKEVSEAVEKGYRMEPPDSCPGPVHTLMGSCWEAEPSRRPPFRKIVEKLGRELRSVGVAAPAGGQEAEGSAPTRSQDPGSGSHHHHHH

koff (Hck (2PA-YEEI) [2]): 0.000322 s⁻¹
B3: Chk (R382A) (enzyme)
chain: B2 chain with R382A, A387K

koff (Hck (2PA-YEEI) [2]): 0.00024 s⁻¹
Kd (Hck (2PA-YEEI) [3]): 35 nM
B4: Chk (R280A) (enzyme)
chain: B2 chain with R280A, A387K

koff (Hck (2PA-YEEI) [2]): 0.000195 s⁻¹
Kd (Hck (2PA-YEEI) [3]): 13 nM
B5: Chk (R278A) (enzyme)
chain: MPTRRWAPGTQCITKCEHTRPKPGELAFRKGDVVTILEACENKSWYRVKHHTSGQEGLLAAGALREREALSADPKLSLMPWFHGKISGQEAVQQLQPPEDGLFLVRESARHPGDYVLCVSFGRDVIHYRVLHRDGHLTIDEAVFFCNLMDMVEHYSKDKGAICTKLVRPKRKHGTKSAEEELARAGWLLNLQHLTLGAQIGEGEFGAVLQGEYLGQKVAVKNIKCDVTAQAFLDETAVMTKMQHENLVRLLGVILHQGLYIVMEHVSKGNLVNFLRTAGRALVNTAQLLQFSLHVAEGMEYLESKKLVHRDLAARNILVSEDLVAKVSDFGLAKAERKGLDSSRLPVKWTAPEALKHGKFTSKSDVWSFGVLLWEVFSYGRAPYPKMSLKEVSEAVEKGYRMEPPEGCPGPVHVLMSSCWEAEPARRPPFRKLAEKLARELRSAGAPASVSGQDADGSTSPRSQEP

koff (Hck (2PA-YEEI) [2]): 0.000208 s⁻¹
Kd (Hck (2PA-YEEI) [3]): 56 nM
B6: Chk (R276A) (enzyme)
chain: B5 chain with R276A, A278R
